Source: patent US20190369104A1, “P27 TYROSINE PHOSPHORYLATION AS A MARKER OF CDK4 ACTIVITY AND METHODS OF USE THEREOF” (THE RESEARCH FOUNDATION FOR THE STATE UNIVERSITY OF NEW YORK, priority 2016, published 2019)

B1: Brk SH3 domain (displayed on phage) (other)
chain: KYVGLWDFKSRTDEELSFRAGDVFHVARKEEQWWWATLLDEAGGAVAQGYVPHNYLAER
notes: also called SH3 domain of Brk

Tests used:
[1] = test system: MCF7-Wt Brk expressing cells; assay: Palbociclib (PD) resistance of Brk-overexpressing cells, IC50; type: cell-based; details: Homo sapiens
Protocol: (§1) Cells were seeded on six well plates in duplicate, 5.0×10^4 per well. 24 hours post seeding, one well for each plate was treated with trypsin and counted using the Biorad Automated cell counter. 48 hours post seeding, another well was treated with trypsin and counted and the rest of the wells were treated with Palbociclib (SelleckChem) at 50 nM, 100 nM, 200 nM and 400 nM. DMSO was used as a negative control. Cells were counted again 24 and 48 h post treatment. The IC50 values were determined by normalizing the number of viable cells treated with different concentrations of Palbociclib to the number of viable cells treated with DMSO for each cell line 48 hours post treatment. The number of viable cells treated with DMSO was considered 100%. The log of the viability values was obtained and the data was fitted to a nonlinear regression curve, which was used to generate the IC50 values using Graphpad Prism software.
Generation of the WT-Brk, KM-Brk, and YF-Brk has been described (Palka-Hamblin H. L. et al., […] J. Cell Sc. 123: 236-45). Amphotropic retroviruses were generated by transfection using Lipofectamine 2000 (Life Technologies 11668-019) of HEK 293 cells with pAmpho envelope and pBabe or pTRE3G tetracycline inducible constructs. Following viral infection of MCF7 cells, stable integrants were isolated by puromycin selection. […]

MCF7 cells = assay: Palbociclib inhibitor treatment, viable cell count IC50; type: cell-based; details: Homo sapiens
Protocol: as §1

MDA MB231 cells = assay: as above; type: cell-based; details: Homo sapiens, MDA-MB-231
Protocol: as §1

HCC1954 cells = assay: as above; type: cell-based; details: Homo sapiens; HCC1954 cells (Rb+)
Protocol: as §1

p27 pY88 in MCF7 cells = assay: Dual pY/p27 IHC assay on cell blocks; type: cell-based; design: key to pY staining intensity: 0: no pY staining; 1: weak pY staining; 2: moderate pY staining; 3: strong pY staining; details: MCF7 cells treated with 400 nM Palbociclib, 48 h
Protocol: 1×10^12 cells were grown in tissue culture, spun down and fixed in 10% formalin, embedded in paraffin, and then analyzed in the dual pY/p27 IHC assay as described. MCF7 cells were treated with 400 nM Palbociclib for 48 h. before cell block preparation. […] On day 1, slides are labeled with a pencil and baked in an oven at 65° C. for 30 minutes and immediately transferred from the oven to a coplin jar containing Xylene. Slides are rinsed in Xylene 4× for 3 minutes each at room temperature followed by a graded alcohol wash at 100%-95%-75% ethanol 3 times, 3 min each at R.T. Slides were then hydrated by incubation in H2O once for 3 min. After drying, a hydrophobic barrier was created around the tissue using a PAP pen. Endogenous peroxide was blocked by incubating the slides with Peroxide block for 30 min at room temp. The slides were washed with TBS-0.1% Tween 20 3 times for 3 minutes each followed by incubation in 1×PBS for 3 min. After an incubation with a with protein block for 1 h at R.T, P27 [MUT] antibody diluted 1:200 in the DAKO antibody diluent was added to the slides for an overnight incubation at 4° C. On day 2, a 1× solution of antigen retrieval was prepared from 10× stock and it was equilibrated at 100° C. in the water bath. […]

[2] = target: T1, recombinantly produced His-tagged p27 (full-length p27) (human, UniProt P46527 1-198); assay: phage-ELISA, SH3 phage on immobilised His-p27 (multivalent phage)
T1 construct: also called p27Kip1; His-p27; not shown: C-terminal histidine tag
T1 sequence (P46527 whole entry): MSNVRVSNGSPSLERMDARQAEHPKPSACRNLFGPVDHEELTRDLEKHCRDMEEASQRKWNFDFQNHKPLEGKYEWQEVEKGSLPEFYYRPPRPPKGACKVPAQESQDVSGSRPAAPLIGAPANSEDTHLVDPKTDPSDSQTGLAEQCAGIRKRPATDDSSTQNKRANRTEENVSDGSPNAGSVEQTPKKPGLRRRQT
Protocol: (§2) Phage supernatants were generated and binding of SH3-phages to recombinantly produced His-tagged-p27 or GST-PxxP-peptides were analyzed as described (Asbach B. et al., (2012) PLoS One 6: e38540).

[3] = target: T2, Yes SH3 domain (displayed on phage) (UniProt P07947 91-152, limits assumed); assay: phage-ELISA on immobilised GST-K2
T2 construct: domain: SH3
T2 sequence (P07947 91-152 limits assumed): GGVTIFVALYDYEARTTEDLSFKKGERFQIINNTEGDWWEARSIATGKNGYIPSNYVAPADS
From the text: (§3) (FIG. 1A) p27 sequence highlighting the proline tracts of the three putative SH3 domain recruitment sites (PxxP): K1 (90-96), K2 (114-117) and K3 (188-195) (SEQ ID NO: 1). Phage-ELISA-analysis of SFK SH3 interactions with p27 (FIG. 1B) or p27's PxxP motifs (FIG. 1C). Data shown is the mean of three independent experiments±standard deviation after normalization and subtraction of the background binding to GST.
as §2

[4] = target: T3, Abl SH3 domain (displayed on phage) (UniProt P00519 61-121, limits assumed); assay: phage-ELISA on immobilised GST-K2
T3 construct: domain: SH3
T3 sequence (P00519 61-121 limits assumed): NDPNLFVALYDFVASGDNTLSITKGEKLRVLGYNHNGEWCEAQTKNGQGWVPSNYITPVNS
From the text: as §3, §2

[5] = target: B1; assay: phage-ELISA on immobilised GST-K2
From the text: as §3, §2

[6] = test system: ER/PR+, Her2− breast cancer cell lines; assay: ALT (alone or with Palbociclib) in breast cancer cell lines; type: cell-based
From the text: To block pY in breast cancer cell lines, we used a small peptide ALT, which contains a portion of Brk's SH3 domain. ALT binds to p27, blocks Brk's association and ability to phosphorylate p27, inhibiting cdk4 and increasing p27's ability to inhibit cdk2. We generated Tetracycline inducible cell lines that expressed ALT and/or engineered a lipid-based nanoparticle delivery vehicle (NP-ALT), permitting us to test ALT as a first generation therapeutic. ALT was also used with Palbociclib to determine if combination therapy reduced drug resistance. pY inhibition comes with a built in biomarker for efficacy and the identification of responsive cell lines and/or future patients. We developed a dual IHC assay for p27 and pY, which we used to analyze both a breast cancer cell line panel previously stratified for Palbociclib sensitivity as well as paraffin-embedded, archival human tumor samples.

[7] = ER/PR+, Her2− breast cancer cell lines

Q: For `CC(=O)c1c(C)c2cnc(Nc3ccc(N4CCNCC4)cn3)nc2n(C2CCCC2)c1=O` [Palbociclib], which IC50 [1] is on record?
A: ~600 nM

Q: And the IC50 (MCF7 cells)?
A: 200 nM

Q: And the IC50 (MDA MB231 cells)?
A: 400 nM

Q: What about the IC50 (HCC1954 cells) of the same molecule?
A: 1000 nM

Q: What about the “pY staining, % of cells stained” value (p27 pY88 in MCF7 cells) of the same molecule?
A: 0%

Q: What about the pY staining intensity (p27 pY88 in MCF7 cells; scale 0-3) of the same molecule?
A: 0

Q: For B1, which Kd [2] is on record?
A: 250 nM

B2: GST-K2 (GST-tagged p27 PxxP peptide K2) (peptide)
chain: DVSGSRPAAPLIGAPA
notes: also called K2 site; not shown: N-terminal GST tag from the pGEX-KG expression vector
Q: Does B2 bind [3]?
A: no binding

Q: Does B2 bind [4]?
A: no binding

Q: Does B2 bind [5]?
A: no binding

B3: ALT: small peptide ALT, which contains a portion of Brk's SH3 domain; alternatively-spliced form of Brk (SEQ ID NO: 12) (protein)
chain: MVSRDQAHLGPKYVGLWDFKSRTDEELSFRAGDVFHVARKEEQWWWATLLDEAGGAVAQGYVPHNYLAERETVESEPAGHAGCAALQDLAACRGPAAPERGGVLPQPARACELPQGPEPVPRPAAGRALPEARA
modifications: Alt-Brk
Q: Which results are given for B3?
A: cdk2 activity [6, 7]: blocked; cdk4 activity [6, 7]: blocked; pY [6, 7]: blocked; proliferation [6, 7]: blocked; duration of arrest ([6]; breast cancer cell lines): > 10 days
